{"source": "paper PMC4500542", "about": "(Cell reports, 2015)", "molecular_target": "the molecule itself", "test": "SEC-MALS", "data": [{"protein": "MBP-EBOV NP 1-367 (domain or fragment) MDSRPQKIWMAPSLTESDMDYHKILTAGLSVQQGIVRQRVIPVYQVNNLEEICQLIIQAFEAGVDFQESADSFLLMLCLHHAYQGDYKLFLESGAVKYLEGHGFRFEVKKRDGVKRLEELLPAVSSGKNIKRTLAAMPEEETTEANAGQFLSFASLFLPKLVVGEKACLEKVQRQIQVHAEQGLIQYPTAWQSVGHMMVIFRLMRTNFLIKFLLIHQGMHMVAGHDANDAVISNSVAQARFSGLLIVKTVLDHILQKTERGVRLHPLARTAKVKNEVNSFKAALSSLAKHGEYAPFARLLNLSGVNNLEHGLFPQLSAIALGVATAHGSTLAGVNVGEQYQQLREAATEAEKQLQQYAESRELDHLG", "values": [{"measurement": "binding result", "value": "binds"}]}]}
